Tests used:
Experiment in all cases: ELISA, peptide coated, antibody 10 µg/ml
[1] = target: M2 peptide (extracellular 23-amino-acid M2 peptide) (influenza A virus)
NM16 (influenza A virus) = target: NM16 (influenza A virus)
M16 (influenza A virus) = target: M16 (influenza A virus)
M15 (influenza A virus) = target: M15 (influenza A virus)
NM15 (influenza A virus) = target: NM15 (influenza A virus)
NM17 (influenza A virus) = target: NM17 (influenza A virus)

B1: C40G1 (antibody, V domains shown)
VH: QLQLQESGPGLVKPSETLSLTCTVSGGSISSSFYYCGWIRQPPGKGLEWIGSIYYRGSTYYNPSLKSRVTISVDTSKNQFSLKLSSVTAADTAVYYCARRVTMVRGVKGDYFDYWGQGTLVTVSS
VL: DIQMTQSPSSLSASVGDRVTITCRASQGISSWLAWYQQKPEKVPKSLIYAASSLQSGVPSRFSGSGSGTDFTLTISSLQPEDFATYYCQQYNYYPLTFGGGTKVEIKR
- ELISA (OD450) [1]: 2.56 OD450
- ELISA (OD450) (NM16 (influenza A virus)): 2.37 OD450
- ELISA (OD450) (M16 (influenza A virus)): 2.64 OD450
- ELISA (OD450) (M15 (influenza A virus)): 2.73 OD450
- ELISA (OD450) (NM15 (influenza A virus)): 2.51 OD450
- ELISA (OD450) (NM17 (influenza A virus)): 2.41 OD450

From patent US20050170334A1
